Data taken from the MegaScale stability set (Tsuboyama et al. 2023).

B1: HEEH_KT_rd6_0007 (parent)
chain: SIEEEIKKAEEAKEKGKTFIHGDFVATTEELLDELLKRLRKKL

Variants of: B1
Experiment: folding stability dG (cDNA display proteolysis); higher = more stable
Settings: PBS, room temperature

Folding stability dG [kcal/mol], by site and new letter:
V25: W 1.39; H 1.28; C 1.94; R 0.704; I 1.41; D 0.749; Y 1.23; A 1.1; N 0.974; T 0.907; K 0.938; Q 1.07; G 0.704; M 1.18; F 1.31; S 0.912; P 0.68; E 1.05; L 1.11
K17: Q 1.47; S 1.18; I 1.59; E 1.67; Y 1.71; L 1.9; A 1.23; H 1.44; G 1.48; V 1.43; D 1.19; T 1.43; M 1.66; N 1.36; C 2.53; F 1.82; P 0.793; R 1.13; W 1.84
H21: I 1.03; W 1.78; F 1.52; R 0.838; A 0.946; Y 1.76; K 0.812; N 0.77; D 0.707; V 1.04; S 1.39; Q 1.03; P 0.759; E 0.742; M 1.08; L 1.29; G 0.81; T 0.971
L31: F 0.877; E 2; I 0.938; G 0.74; H 1.08; D 1.52; A 1.28
E30: W 1.42; L 1.14; D 1.17; H 1.15; S 1.12; R 1.19; T 1.09; P 0.673; G 0.9; M 1.05; C 1.63; F 1.13; N 0.882; K 1.24; Y 1.15; Q 1.14; A 1.41; I 0.954; V 0.976
D23: N 1.4; V 1.38; Q 1.14; W 1.64; K 1.06; G 1.16; T 1.36; H 1.02; Y 1.3; R 0.773; P 0.958; S 1.36; L 1.31; M 1.26; C 1.91; I 1.52; A 1.26; E 1.16; F 1.48
G16: L 1.22; H 1.25; T 0.757; Q 0.935; R 0.873; E 0.895; K 1.3; D 0.785; F 1.2; W 1.3; S 0.957; I 1.03; V 0.73; P 0.298; A 0.667; M 0.701; N 1.08; Y 1.12
T18: W 1.76; A 1.3; H 1.16; R 1.09; D 0.988; I 1.67; K 1.1; F 1.3; P 1.32; V 1.48; N 1.07; G 1.23; L 1.07; Y 1.37; M 1.32; S 1.21; Q 1.28; E 1.12
F19: G 0.793; P 0.637; D 0.713; Q 0.715; N 0.745; S 0.618; M 0.895; V 0.861; T 0.77; L 0.751; R 0.752; H 0.937; E 0.58; K 0.811; A 0.757; W 0.964; Y 1.49; I 0.902
E14: F 1.31; M 1.42; H 1.21; L 1.58; Y 1.33; N 1.21; V 1.25; R 1.68; G 1.19; W 1.37; P 0.587; T 1.3
